Experimental data: publication PMC7367838, “Engineered CRISPR/Cas9 enzymes improve discrimination by slowing DNA cleavage to allow release of off-target DNA”

B1: sgRNA + on-target 55-bp DNA (mixed)
RNA: GACGCAUAAAGAUGAGACGCGUUUUAGAGCUAUGCUGUUUUGGAAACAAAACAGCAUAGCAAGUUAAAAUAAGGCUAGUCCGUUAUCAACUUGAAAAAGUGGCACCGAGUCGGUGCUUUUUUUGGAUC
DNA 1: AGCTGACGTTTGTACTCCAGCGTCTCATCTTTATGCGTCAGCAGAGATTTCTGCT
DNA 2: AGCAGAAATCTCTGCTGACGCATAAAGATGAGACGCTGGAGTACAAACGTCAGCT
B2: sgRNA + off-target 55-bp DNA (3-bp PAM-distal mismatch) (mixed)
RNA: GACGCAUAAAGAUGAGACGCGUUUUAGAGCUAUGCUGUUUUGGAAACAAAACAGCAUAGCAAGUUAAAAUAAGGCUAGUCCGUUAUCAACUUGAAAAAGUGGCACCGAGUCGGUGCUUUUUUUGGAUC
DNA 1: AGCTGACGTTTGTACTCCAGCGTCTCATCTTTATGCCAGAGCAGAGATTTCTGCT
DNA 2: AGCAGAAATCTCTGCTCTGGCATAAAGATGAGACGCTGGAGTACAAACGTCAGCT

Experiments:
Settings in all cases: protein: recombinant; tags: His6-MBP removed by TEV; label: 32P or 6-FAM for cleavage; tCo (position not in material) for unwinding; guide RNA (S25+S26 joined) / target strand / non-target strand; DNA duplex blunt
[1] = biological target: T1, SpCas9 (Streptococcus pyogenes, UniProt Q99ZW2 1-1368); experiment: stopped-flow and cleavage kinetics, global fit; Kd,net including R-loop formation; bracketed value, footnote 3 not in material, may be fixed or from earlier work; Reaction buffer, salt, pH and temperature not in the material; Mg2+ added to start cleavage, omitted for pre-equilibration
[2] = biological target: T1, SpCas9; experiment: stopped-flow and cleavage kinetics, global fit; 1/K1, initial binding step; bracketed value, footnote 3 not in material, may be fixed or from earlier work; Reaction buffer, salt, pH and temperature not in the material; Mg2+ added to start cleavage, omitted for pre-equilibration
[3] = biological target: T1, SpCas9; experiment: stopped-flow and cleavage kinetics, global fit; Kd,net including R-loop formation; Reaction buffer, salt, pH and temperature not in the material; Mg2+ added to start cleavage, omitted for pre-equilibration
[4] = biological target: T1, SpCas9; experiment: stopped-flow and cleavage kinetics, global fit; 1/K1, initial binding step; Reaction buffer, salt, pH and temperature not in the material; Mg2+ added to start cleavage, omitted for pre-equilibration

T1 sequence (Q99ZW2 whole entry): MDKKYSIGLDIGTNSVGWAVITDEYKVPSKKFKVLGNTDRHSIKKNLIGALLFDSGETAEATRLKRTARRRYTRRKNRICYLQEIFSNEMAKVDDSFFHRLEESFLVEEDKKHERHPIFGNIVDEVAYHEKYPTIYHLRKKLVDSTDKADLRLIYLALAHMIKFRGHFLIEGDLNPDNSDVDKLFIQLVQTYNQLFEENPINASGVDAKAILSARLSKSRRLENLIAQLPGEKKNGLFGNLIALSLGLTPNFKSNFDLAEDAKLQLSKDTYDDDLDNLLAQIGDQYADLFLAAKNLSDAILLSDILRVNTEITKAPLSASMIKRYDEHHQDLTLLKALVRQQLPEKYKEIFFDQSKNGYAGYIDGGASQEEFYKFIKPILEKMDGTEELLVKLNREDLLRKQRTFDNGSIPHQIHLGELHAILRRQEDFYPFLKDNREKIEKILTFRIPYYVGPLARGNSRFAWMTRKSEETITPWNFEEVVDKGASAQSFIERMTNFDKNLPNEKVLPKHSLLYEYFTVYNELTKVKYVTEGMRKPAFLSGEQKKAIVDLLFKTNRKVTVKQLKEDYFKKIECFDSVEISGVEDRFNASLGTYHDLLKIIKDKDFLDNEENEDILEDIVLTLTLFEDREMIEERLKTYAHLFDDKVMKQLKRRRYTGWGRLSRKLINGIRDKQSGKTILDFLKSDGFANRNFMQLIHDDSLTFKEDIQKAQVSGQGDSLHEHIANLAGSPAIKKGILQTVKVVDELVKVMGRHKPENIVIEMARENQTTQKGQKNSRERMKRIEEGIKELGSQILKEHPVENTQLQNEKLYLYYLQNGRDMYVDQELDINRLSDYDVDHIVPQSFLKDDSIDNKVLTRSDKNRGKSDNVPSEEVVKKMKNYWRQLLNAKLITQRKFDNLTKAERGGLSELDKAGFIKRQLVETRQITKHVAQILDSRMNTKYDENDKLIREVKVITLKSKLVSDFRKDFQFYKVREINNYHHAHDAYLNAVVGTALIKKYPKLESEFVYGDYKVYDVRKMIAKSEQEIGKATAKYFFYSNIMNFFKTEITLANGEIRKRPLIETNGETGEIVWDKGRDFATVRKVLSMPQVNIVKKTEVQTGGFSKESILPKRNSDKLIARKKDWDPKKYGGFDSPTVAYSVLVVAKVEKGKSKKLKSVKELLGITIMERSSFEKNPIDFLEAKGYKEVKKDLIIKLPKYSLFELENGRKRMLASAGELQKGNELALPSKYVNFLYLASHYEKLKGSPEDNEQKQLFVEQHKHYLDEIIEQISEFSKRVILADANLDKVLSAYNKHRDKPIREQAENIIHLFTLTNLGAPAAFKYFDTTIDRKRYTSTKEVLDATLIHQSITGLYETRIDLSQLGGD

Binder	Kd [1] [nM]	Kd [2] [nM]	Kd [3] [nM]	Kd [4] [nM]
B1	1	3	–	–
B2	–	–	8.1	24
